Laboratory results taken from patent US20180360932A1 (OPKO BIOLOGICS, published 2018).
One block for each molecule: values may come before it.

What was measured:
[1] = molecular target: MOD-5014 (FVIIa-CTP3, activated Factor VII-CTP-CTP-CTP) (human) (UniProt P08709); test: cell-based or functional assay
[2] = molecular target: Tissue factor (TF), P13726; test: cell-based or functional assay
Chain of Tissue factor (TF), P13726 (P13726 33-295): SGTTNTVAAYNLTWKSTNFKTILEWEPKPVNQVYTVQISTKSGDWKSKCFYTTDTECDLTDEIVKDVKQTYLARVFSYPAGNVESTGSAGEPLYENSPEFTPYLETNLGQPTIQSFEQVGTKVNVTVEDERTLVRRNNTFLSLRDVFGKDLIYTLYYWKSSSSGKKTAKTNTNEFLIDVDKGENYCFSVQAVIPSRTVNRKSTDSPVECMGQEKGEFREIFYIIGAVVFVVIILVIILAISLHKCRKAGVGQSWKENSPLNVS

sensitivity of FVIIa/TF generation of FXa to TFPI inhibition, relative to MOD-5000 [1]: 124%
Molecule: Tissue factor pathway inhibitor (TFPI) (from UniProt P10646 29-304)

ETP (TG; MOD-5014 1.25 ug/ml + TF 0.5 pM; run 1) [2]: 264
ETP (TG; MOD-5014 1.25 ug/ml + TF 1 pM; run 1) [2]: 484
ETP (TG; MOD-5014 1.25 ug/ml + TF 2.5 pM; run 1) [2]: 1120
ETP (TG; MOD-5014 1.25 ug/ml + TF 5 pM; run 1) [2]: 1600
ETP (TG; MOD-5014 2.5 ug/ml + TF 0.5 pM; run 1) [2]: 245
ETP (TG; MOD-5014 2.5 ug/ml + TF 0.5 pM; run 2) [2]: 317
ETP (TG; MOD-5014 2.5 ug/ml + TF 1 pM; run 1) [2]: 448
ETP (TG; MOD-5014 2.5 ug/ml + TF 1 pM; run 2) [2]: 760
ETP (TG; MOD-5014 2.5 ug/ml + TF 2.5 pM; run 1) [2]: 1030
ETP (TG; MOD-5014 2.5 ug/ml + TF 2.5 pM; run 2) [2]: 1110
ETP (TG; MOD-5014 2.5 ug/ml + TF 5 pM; run 1) [2]: 1550
ETP (TG; MOD-5014 2.5 ug/ml + TF 5 pM; run 2) [2]: 1600
ETP (TG; MOD-5014 5 ug/ml + TF 0.5 pM; run 1) [2]: 344
ETP (TG; MOD-5014 5 ug/ml + TF 1 pM; run 1) [2]: 490
ETP (TG; MOD-5014 5 ug/ml + TF 2.5 pM; run 1) [2]: 982
ETP (TG; MOD-5014 5 ug/ml + TF 5 pM; run 1) [2]: 1510
ETP (TG; MOD-5014 10 ug/ml + TF 0.5 pM; run 2) [2]: 460
ETP (TG; MOD-5014 10 ug/ml + TF 1 pM; run 2) [2]: 754
ETP (TG; MOD-5014 10 ug/ml + TF 2.5 pM; run 2) [2]: 1060
ETP (TG; MOD-5014 10 ug/ml + TF 5 pM; run 2) [2]: 1600
ETP; thrombin generation in severe hemophilia A pooled plasma, MOD-5014 5 ug/kg (FIG. 83), TF 0.5 pM, run #2 [2]: 354
ETP; thrombin generation in severe hemophilia A pooled plasma, MOD-5014 5 ug/kg (FIG. 83), TF 1 pM, run #2 [2]: 754
ETP; thrombin generation in severe hemophilia A pooled plasma, MOD-5014 5 ug/kg (FIG. 83), TF 2.5 pM, run #2 [2]: 1010
ETP; thrombin generation in severe hemophilia A pooled plasma, MOD-5014 5 ug/kg (FIG. 83), TF 5 pM, run #2 [2]: 1530
Lag time (TG; MOD-5014 1.25 ug/ml + TF 0.5 pM; run 1) [2]: 4.67 min
Lag time (TG; MOD-5014 1.25 ug/ml + TF 1 pM; run 1) [2]: 2.67 min
Lag time (TG; MOD-5014 1.25 ug/ml + TF 2.5 pM; run 1) [2]: 2.33 min
Lag time (TG; MOD-5014 1.25 ug/ml + TF 5 pM; run 1) [2]: 1.33 min
Lag time (TG; MOD-5014 2.5 ug/ml + TF 0.5 pM; run 1) [2]: 6.67 min
Lag time (TG; MOD-5014 2.5 ug/ml + TF 1 pM; run 1) [2]: 3 min
Lag time (TG; MOD-5014 2.5 ug/ml + TF 1 pM; run 2) [2]: 3.33 min
Lag time (TG; MOD-5014 2.5 ug/ml + TF 2.5 pM; run 1) [2]: 2.63 min
Lag time (TG; MOD-5014 2.5 ug/ml + TF 2.5 pM; run 2) [2]: 2.67 min
Lag time (TG; MOD-5014 2.5 ug/ml + TF 5 pM; run 1) [2]: 3.67 min
Lag time (TG; MOD-5014 2.5 ug/ml + TF 5 pM; run 2) [2]: 1.67 min
Lag time (TG; MOD-5014 5 ug/ml + TF 0.5 pM; run 1) [2]: 5.67 min
Lag time (TG; MOD-5014 5 ug/ml + TF 1 pM; run 1) [2]: 3 min
Lag time (TG; MOD-5014 5 ug/ml + TF 2.5 pM; run 1) [2]: 3 min
Lag time (TG; MOD-5014 5 ug/ml + TF 5 pM; run 1) [2]: 1.67 min
Lag time (TG; MOD-5014 10 ug/ml + TF 0.5 pM; run 2) [2]: 8.67 min
Lag time (TG; MOD-5014 10 ug/ml + TF 2.5 pM; run 2) [2]: 3 min
Lag time (TG; MOD-5014 10 ug/ml + TF 5 pM; run 2) [2]: 1.67 min
Lag time; thrombin generation in severe hemophilia A pooled plasma, MOD-5014 5 ug/kg (FIG. 83), TF 0.5 pM, run #2 [2]: 7
Lag time; thrombin generation in severe hemophilia A pooled plasma, MOD-5014 5 ug/kg (FIG. 83), TF 1 pM, run #2 [2]: 3.67
Lag time; thrombin generation in severe hemophilia A pooled plasma, MOD-5014 5 ug/kg (FIG. 83), TF 2.5 pM, run #2 [2]: 2.67
Lag time; thrombin generation in severe hemophilia A pooled plasma, MOD-5014 5 ug/kg (FIG. 83), TF 5 pM, run #2 [2]: 2
Peak (TG; MOD-5014 1.25 ug/ml + TF 0.5 pM; run 1) [2]: 9.04
Peak (TG; MOD-5014 1.25 ug/ml + TF 1 pM; run 1) [2]: 27.4
Peak (TG; MOD-5014 1.25 ug/ml + TF 2.5 pM; run 1) [2]: 99.1
Peak (TG; MOD-5014 1.25 ug/ml + TF 5 pM; run 1) [2]: 231
Peak (TG; MOD-5014 2.5 ug/ml + TF 0.5 pM; run 1) [2]: 10.3
Peak (TG; MOD-5014 2.5 ug/ml + TF 0.5 pM; run 2) [2]: 11.2
Peak (TG; MOD-5014 2.5 ug/ml + TF 1 pM; run 1) [2]: 22.6
Peak (TG; MOD-5014 2.5 ug/ml + TF 1 pM; run 2) [2]: 30.4
Peak (TG; MOD-5014 2.5 ug/ml + TF 2.5 pM; run 1) [2]: 93.2
Peak (TG; MOD-5014 2.5 ug/ml + TF 2.5 pM; run 2) [2]: 105
Peak (TG; MOD-5014 2.5 ug/ml + TF 5 pM; run 1) [2]: 241
Peak (TG; MOD-5014 2.5 ug/ml + TF 5 pM; run 2) [2]: 245
Peak (TG; MOD-5014 5 ug/ml + TF 0.5 pM; run 1) [2]: 13.2
Peak (TG; MOD-5014 5 ug/ml + TF 1 pM; run 1) [2]: 28.3
Peak (TG; MOD-5014 5 ug/ml + TF 2.5 pM; run 1) [2]: 94.2
Peak (TG; MOD-5014 5 ug/ml + TF 5 pM; run 1) [2]: 261
Peak (TG; MOD-5014 10 ug/ml + TF 1 pM; run 2) [2]: 32.2
Peak (TG; MOD-5014 10 ug/ml + TF 2.5 pM; run 2) [2]: 92.2
Peak (TG; MOD-5014 10 ug/ml + TF 5 pM; run 2) [2]: 236
Peak; thrombin generation in severe hemophilia A pooled plasma, MOD-5014 5 ug/kg (FIG. 83), TF 0.5 pM, run #2 [2]: 14.3
Peak; thrombin generation in severe hemophilia A pooled plasma, MOD-5014 5 ug/kg (FIG. 83), TF 1 pM, run #2 [2]: 28.6
Peak; thrombin generation in severe hemophilia A pooled plasma, MOD-5014 5 ug/kg (FIG. 83), TF 2.5 pM, run #2 [2]: 104
Peak; thrombin generation in severe hemophilia A pooled plasma, MOD-5014 5 ug/kg (FIG. 83), TF 5 pM, run #2 [2]: 254
StartTail (TG; MOD-5014 1.25 ug/ml + TF 0.5 pM; run 1) [2]: 75
StartTail (TG; MOD-5014 1.25 ug/ml + TF 1 pM; run 1) [2]: 40
StartTail (TG; MOD-5014 1.25 ug/ml + TF 2.5 pM; run 1) [2]: 33
StartTail (TG; MOD-5014 1.25 ug/ml + TF 5 pM; run 1) [2]: 25
StartTail (TG; MOD-5014 2.5 ug/ml + TF 0.5 pM; run 1) [2]: 64
StartTail (TG; MOD-5014 2.5 ug/ml + TF 0.5 pM; run 2) [2]: 75
StartTail (TG; MOD-5014 2.5 ug/ml + TF 1 pM; run 1) [2]: 56
StartTail (TG; MOD-5014 2.5 ug/ml + TF 2.5 pM; run 1) [2]: 34
StartTail (TG; MOD-5014 2.5 ug/ml + TF 2.5 pM; run 2) [2]: 31
StartTail (TG; MOD-5014 2.5 ug/ml + TF 5 pM; run 1) [2]: 23
StartTail (TG; MOD-5014 2.5 ug/ml + TF 5 pM; run 2) [2]: 24
StartTail (TG; MOD-5014 5 ug/ml + TF 0.5 pM; run 1) [2]: 75
StartTail (TG; MOD-5014 5 ug/ml + TF 1 pM; run 1) [2]: 50
StartTail (TG; MOD-5014 5 ug/ml + TF 2.5 pM; run 1) [2]: 38
StartTail (TG; MOD-5014 10 ug/ml + TF 0.5 pM; run 2) [2]: 72
StartTail (TG; MOD-5014 10 ug/ml + TF 2.5 pM; run 2) [2]: 34
StartTail (TG; MOD-5014 10 ug/ml + TF 5 pM; run 2) [2]: 25
StartTail; thrombin generation in severe hemophilia A pooled plasma, MOD-5014 5 ug/kg (FIG. 83), TF 1 pM, run #2 [2]: 69
StartTail; thrombin generation in severe hemophilia A pooled plasma, MOD-5014 5 ug/kg (FIG. 83), TF 2.5 pM, run #2 [2]: 30
StartTail; thrombin generation in severe hemophilia A pooled plasma, MOD-5014 5 ug/kg (FIG. 83), TF 5 pM, run #2 [2]: 23
tt Peak (TG; MOD-5014 1.25 ug/ml + TF 0.5 pM; run 1) [2]: 22.3
tt Peak (TG; MOD-5014 1.25 ug/ml + TF 1 pM; run 1) [2]: 10.3
tt Peak (TG; MOD-5014 1.25 ug/ml + TF 2.5 pM; run 1) [2]: 8
tt Peak (TG; MOD-5014 1.25 ug/ml + TF 5 pM; run 1) [2]: 4.67
tt Peak (TG; MOD-5014 2.5 ug/ml + TF 0.5 pM; run 1) [2]: 22
tt Peak (TG; MOD-5014 2.5 ug/ml + TF 2.5 pM; run 1) [2]: 8.35
tt Peak (TG; MOD-5014 2.5 ug/ml + TF 2.5 pM; run 2) [2]: 8.33
tt Peak (TG; MOD-5014 2.5 ug/ml + TF 5 pM; run 2) [2]: 4.67
tt Peak (TG; MOD-5014 5 ug/ml + TF 0.5 pM; run 1) [2]: 21.3
tt Peak (TG; MOD-5014 5 ug/ml + TF 1 pM; run 1) [2]: 10.7
tt Peak (TG; MOD-5014 5 ug/ml + TF 2.5 pM; run 1) [2]: 8.33
tt Peak (TG; MOD-5014 5 ug/ml + TF 5 pM; run 1) [2]: 4.67
tt Peak (TG; MOD-5014 10 ug/ml + TF 1 pM; run 2) [2]: 33.7
tt Peak (TG; MOD-5014 10 ug/ml + TF 2.5 pM; run 2) [2]: 8.67
tt Peak; thrombin generation in severe hemophilia A pooled plasma, MOD-5014 5 ug/kg (FIG. 83), TF 0.5 pM, run #2 [2]: 21.3
tt Peak; thrombin generation in severe hemophilia A pooled plasma, MOD-5014 5 ug/kg (FIG. 83), TF 1 pM, run #2 [2]: 12.3
tt Peak; thrombin generation in severe hemophilia A pooled plasma, MOD-5014 5 ug/kg (FIG. 83), TF 2.5 pM, run #2 [2]: 7.67
tt Peak; thrombin generation in severe hemophilia A pooled plasma, MOD-5014 5 ug/kg (FIG. 83), TF 5 pM, run #2 [2]: 4.67
B1: MOD-5014 (FVIIa-CTP3; activated Factor VII-CTP-CTP-CTP), P08709 61-212 (enzyme)
chain 1: ANAFLEELRPGSLERECKEEQCSFEEAREIFKDAERTKLFWISYSDGDQCASSPCQNGGSCKDQLQSYICFCLPAFEGRNCETHKDDQLICVNENGGCEQYCSDHTGTKRSCRCHEGYSLLADGVSCTPTVEYPCGKIPILEKRNASKPQGR
chain 2: IVGGKVCPKGECPWQVLLLVNGAQLCGGTLINTIWVVSAAHCFDKIKNWRNLIAVLGEHDLSEHDGDEQSRRVAQVIIPSTYVPGTTNHDIALLRLHQPVVLTDHVVPLCLPERTFSERTLAFVRFSLVSGWGQLLDRGATALELMVLNVPRLMTQDCLQQSRKVGDSPNITEYMFCAGYSDGSKDSCKGDSGGPHATHYRGTWYLTGIVSWGQGCATVGHFGVYTRVSQYIEWLQKLMRSEPRPGVLLRAPFPSSSSKAPPPSLPSPSRLPGPSDTPILPQSSSSKAPPPSLPSPSRLPGPSDTPILPQSSSSKAPPPSLPSPSRLPGPSDTPILPQ
modifications: here or on the partner: CTP units may be O-glycosylated (sites not given); gamma-carboxyglutamic acid (Gla) residues in the N-terminal region (positions not given)
